According to PMC10819704, “Regulatory Role of GgaR (YegW) for Glycogen Accumulation in Escherichia coli K-12” (Microorganisms, 2024):

Assays:
[1] = target: GgaR (YegW) (Escherichia coli, UniProt P0ACM5); test: gel shift assay: loss of GgaR-DNA complex; type: binding; settings: 2.0 pmol GgaR, 0.5 pmol fbaB/yegT spacer DNA probe, 10-100 uM ADPG, 37 °C; effector (inducer) releasing the repressor from DNA
[2] = target: T1, GgaR (YegW) (Escherichia coli K-12 W3110) (UniProt P0ACM5); test: EMSA; settings: EMSA: binding buffer composition and pH not given; 37 C, 30 min (+30 min with effector); 0.5 pmol probe; 5% PAGE, GelRed stain
T1 sequence: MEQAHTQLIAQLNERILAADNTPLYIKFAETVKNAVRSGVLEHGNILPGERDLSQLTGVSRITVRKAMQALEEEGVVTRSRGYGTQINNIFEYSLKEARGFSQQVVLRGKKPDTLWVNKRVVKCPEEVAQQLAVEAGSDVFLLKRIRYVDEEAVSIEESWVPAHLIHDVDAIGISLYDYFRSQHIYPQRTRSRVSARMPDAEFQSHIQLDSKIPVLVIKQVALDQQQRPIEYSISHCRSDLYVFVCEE

How did the “gel shift assay: loss of GgaR-DNA complex” value [1] turn out when Nc1ncnc2c1ncn2[C@@H]1O[C@H](COP(=O)(O)OP(=O)(O)O[C@H]2O[C@H](CO)[C@@H](O)[C@H](O)[C@H]2O)[C@@H](O)[C@H]1O [ADPG, ADP-glucose] was run?
The value was “After adding increasing concentrations of ADPG, the complex of GgaR and the fbaB/yegT spacer”.

How did the binding [2] turn out when “AAATGGATATTAAAGTCATGCTCGGCCTGGATGCGCTGATCCTGCTGCGCGATAAAAACTTCCTCGTCTTTTTCTTCTGTTCATTCCTGTTTGCGATGCCACTAGCGTTCTATTACATCTTTGCCAACGGTTATCTGACCGAAGTTGGCATGAAAAACGCCACCGGCTGGATGACGCTCGGCCAGTTCTCTGAAATCTTCTTTATGCTGGCATTGCCGTTTTTCACTAAACGCTTTGGTATCAAAAAGGTATTATTGCTTGGTCTGGTCACCGCTGCGATCCGCTATGGCTTCTTTAT (double strand) [probe-5]” was run?
The binding was “binds more weakly”.

How did the binding [2] turn out when “AATCATAATCCTGGTCGTTACGGGCGAGTTTTTCCATCTTTTGGATGTTTTTTCAGCGTTTTCTGTTGGCTCGATTCATCAGAAAAAATGTTAGCGCGGTCAAGTTTTCACCGCAAAGGTATTTAAAAGGTATTATTAAGTGGTATTGTCATCGCGTACCTTACATTACCTGTCATGAAGGAATTAAAAGATGAAAACAACAGCAAAGCTGTCGTTCATGATGTTTGTTGAATGGTTTATC (double strand) [probe-2]” was run?
The binding was “binds”.

For “TTTCTGATGAATCGAGCCAACAGAAAACGCTGAAAAAACATCCAAAAGATGGAAAAACTCGCCCGTAACGACCAGGATTATGATTGCCCGCAAAAGGCGGGCCAGGACAATCCATAGCCGATATCCAATCGGAATTTACGGGAGCATAGTAATGACAGATATTGCGCAGTTGCTTGGCAAAGACGCCGACAACCTTTTACAGCACCGTTGTATGACAATTCCTTCTGACCAGCTTTATCTCCCCGGACATGACTACGTAGACCGCGTAATGATTG (double strand) [probe-1]”, which binding [2] is on record?
Its binding is “no binding”.
